Test results from publication PMC7214622, “Function of P2X4 Receptors Is Directly Modulated by a 1:1 Stoichiometric Interaction With 5-HT3A Receptors” (Frontiers in Cellular Neuroscience, 2020).

Molecular target: T1, rat P2X4 receptor with a C-terminal hemagglutinin (HA) tag (rat, UniProt P51577 1-388)
T1 construct: P2X4 subunit, rat (Rattus norvegicus), GenBank U47031.1; UniProt P51577 is printed for the rat P2X4 subunit in the modelling methods; The subunit ran at 70 kDa on SDS-PAGE, which the authors put down to glycosylation; also called P2X4 subunit; source: tsA201 cells, transfected (pcDNA3.1, PEI); Triton X-100 solubilised MEMBRANE fraction; eluted from anti-HA agarose beads with HA peptide; not …
T1 sequence (looked up): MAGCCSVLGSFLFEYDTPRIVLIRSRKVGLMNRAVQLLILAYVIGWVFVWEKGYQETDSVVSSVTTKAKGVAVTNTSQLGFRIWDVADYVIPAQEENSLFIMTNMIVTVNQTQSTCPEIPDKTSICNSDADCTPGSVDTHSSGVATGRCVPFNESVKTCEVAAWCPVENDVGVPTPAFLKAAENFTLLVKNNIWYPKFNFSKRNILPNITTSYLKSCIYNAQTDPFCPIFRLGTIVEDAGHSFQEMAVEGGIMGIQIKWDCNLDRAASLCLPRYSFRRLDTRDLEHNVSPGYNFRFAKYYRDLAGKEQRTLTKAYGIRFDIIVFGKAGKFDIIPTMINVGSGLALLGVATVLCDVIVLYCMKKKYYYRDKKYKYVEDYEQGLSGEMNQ
Assay: atomic force microscopy imaging; complexes co-purified by the HA tag from co-transfected tsA201 cells, adsorbed onto mica for 15 min, dried and imaged in intermittent contact mode; histograms of molecular volumes fitted by a double Gaussian; without ATP, or with 100 μM ATP for 30 min in solution before adsorption
Conditions: partners not purified

B1: human 5-HT3A receptor with a C-terminal MYC/His-6 epitope tag (receptor, UniProt P46098 24-478, looked up)
chain: RRSRNTTRPALLRLSDYLLTNYRKGVRPVRDWRKPTTVSIDVIVYAILNVDEKNQVLTTYIWYRQYWTDEFLQWNPEDFDNITKLSIPTDSIWVPDILINEFVDVGKSPNIPYVYIRHQGEVQNYKPLQVVTACSLDIYNFPFDVQNCSLTFTSWLHTIQDINISLWRLPEKVKSDRSVFMNQGEWELLGVLPYFREFSMESSNYYAEMKFYVVIRRRPLFYVVSLLLPSIFLMVMDIVGFYLPPNSGERVSFKITLLLGYSVFLIIVSDTLPATAIGTPLIGVYFVVCMALLVISLAETIFIVRLVHKQDLQQPVPAWLRHLVLERIAWLLCLREQSTSQRPPATSQATKTDDCSAMGNHCSHMGGPQDFEKSPRDRCSPPPPPREASLAVCGLLQELSSIRQFLEKRDEIREVARDWLRVGSVLDKLLFHIYLLAVLAYSITLVMLWSIWQYA
notes: 5-HT3A subunit, human (Homo sapiens), GenBank AK304630.1; UniProt P46098 is printed for the human 5-HT3A subunit in the modelling methods; The subunit ran at 55 kDa on SDS-PAGE; also called 5-HT3A subunit; 5-HT3A-MYC/His6; source: tsA201 cells, transfected (pcDNA3.1, PEI); Triton X-100 solubilised MEMBRANE fraction; eluted from HisPur Ni-NTA agarose beads with 200 mM imidazole; not shown: MYC, …
  stoichiometry N: 1
